Experiment [1] deals with human regulatory light chain (MYL2) (UniProt P10916). The experiment is described as follows: Coomassie SDS-PAGE gel-based light chain loading assay. The settings on record: read off a plot.
Experiment [2] concerns the target human essential light chain (MYL3) (UniProt P08590). Described as above. Conditions: read off a plot.

Results on 2 substances are retold here after publication PMC9242648.

As for “human β-cardiac myosin 2-hep heavy chain, wild type D778V”, the ratio to parent in experiment [1] is 1.3; in experiment [2], 1.1.
On the same counts, the results for “human β-cardiac myosin 2-hep heavy chain, wild type L781P” are 1.2 and 0.99.
